According to US20030068630A1 (MYRIAD GENETICS, published 2003):

Target: T1, Mineralocorticoid receptor (MCR) amino acids 603-985, Gal4 DNA-binding-domain bait fusion (Saccharomyces cerevisiae, UniProt P04386 1-147; P08235 603-984)
T1 construct: range 1-147;range 603-985; Bait made as a C-terminal fusion to Gal4 DBD in vector pGBTQ; also called MCR AA 603-985
Assay: yeast two-hybrid (Gal4, beta-galactosidase read-out) with 4 uM aldosterone; bait MCR AA 603-985
Description: DNA was prepared from each clone, transformed by electroporation into E. coli strain KC8 (Clontech KC8 electrocompetent cells, cat. # C2023-1), and the cells were selected on ampicillin-containing plates in the absence of either tryptophane (selection for the bait plasmid) or leucine (selection for the brain library plasmid). DNA for both plasmids was prepared and sequenced by di-deoxynucleotide chain termination method. The identity of the bait cDNA insert was confirmed and the cDNA insert from the brain library plasmid was identified using BLAST program against public nucleotides and protein databases. Plasmids from the brain library (preys) were then individually transformed into yeast cells together with a plasmid driving the synthesis of lamin fused to the Gal4 DNA binding domain. Clones that gave a positive signal after β-galactosidase assay were considered false-positives and discarded. Plasmids for the remaining clones were transformed into yeast cells together with plasmid for the original bait. Clones that gave a positive signal after ,galactosidase assay were considered true positives.
A yeast two-hybrid system as described in Example 1 was performed in the presence of aldosterone. […]

binding result: binds
B1: PN19395 amino acids 120-397, Gal4 activation-domain prey fusion (other, Saccharomyces cerevisiae, not shown: small tags and cut ends)
chain: ANFNQSGNIADSSLSFTFTNSSNGPNLITTQTNSQALSQPIASSNVHDNFMNNEITASKIDDGNNSKPLSPGWTDQTAYNAFGITTGMFNTTTMDDVYNYLFDDEDTPPNPKKELMPGAGLLPIPTPNPLTTLGVSLSSLGAIPAAALDPNIATLGEIPQPPLMGNVDPSKIDEIRRTVYVGNLNSQTTTADQLLEFFKQVGEVKFVRMAGDETQPTRFAFVEFADQNSVPRALAFNGVMFGDRPLKINHSNNAIVKPPEMTPQAAAKELEEVMKRVREAQSFISAAIEPESGKSNERKGGRSRSHTRSKSRSSSKSHSRRKRSQSKHRSRSHNRSRSRQKDRRRSKSPHKKRSKSRERRKSRSRSHSRDKRKDTREKIKEKERVKEKDREK
notes: range 768-881; Novel 624 amino acid protein; Clone from a human brain cDNA library in pACT2
